Measured values as given in US7470668B2, “Method of use of specific natriuretic peptide receptor c ligands, transgenic non-human mammals expressing specific natriuretic peptide receptor c antagonists and cells thereof” (Enobia Pharma Inc., priority 2005, dated 2008).
No end group written: not given here.

T1: NPR-C (Homo sapiens, UniProt P17342)
T1 construct: expressed in transfected cells; host or cells: HEK293, transient, pCDNA1.1 (CMV promoter)
T1 sequence (P17342 27-541): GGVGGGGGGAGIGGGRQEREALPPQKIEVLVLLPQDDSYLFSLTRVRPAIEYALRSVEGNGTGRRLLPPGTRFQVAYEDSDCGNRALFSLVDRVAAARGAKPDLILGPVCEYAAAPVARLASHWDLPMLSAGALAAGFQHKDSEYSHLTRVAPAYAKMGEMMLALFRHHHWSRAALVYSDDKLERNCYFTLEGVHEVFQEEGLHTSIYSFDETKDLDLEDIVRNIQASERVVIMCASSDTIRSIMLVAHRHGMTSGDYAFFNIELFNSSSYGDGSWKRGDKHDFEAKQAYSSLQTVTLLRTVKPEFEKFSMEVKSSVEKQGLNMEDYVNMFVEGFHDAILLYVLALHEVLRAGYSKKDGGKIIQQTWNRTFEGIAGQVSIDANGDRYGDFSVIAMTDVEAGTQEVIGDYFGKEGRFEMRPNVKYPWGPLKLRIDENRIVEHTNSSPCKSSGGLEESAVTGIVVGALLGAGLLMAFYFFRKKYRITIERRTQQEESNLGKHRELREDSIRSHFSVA

T2: human GC-B (Homo sapiens, UniProt P20594)
T2 construct: expressed in transfected cells; host or cells: HEK293, transient, pCDNA1.1 (CMV promoter)
T2 sequence (P20594 23-1047): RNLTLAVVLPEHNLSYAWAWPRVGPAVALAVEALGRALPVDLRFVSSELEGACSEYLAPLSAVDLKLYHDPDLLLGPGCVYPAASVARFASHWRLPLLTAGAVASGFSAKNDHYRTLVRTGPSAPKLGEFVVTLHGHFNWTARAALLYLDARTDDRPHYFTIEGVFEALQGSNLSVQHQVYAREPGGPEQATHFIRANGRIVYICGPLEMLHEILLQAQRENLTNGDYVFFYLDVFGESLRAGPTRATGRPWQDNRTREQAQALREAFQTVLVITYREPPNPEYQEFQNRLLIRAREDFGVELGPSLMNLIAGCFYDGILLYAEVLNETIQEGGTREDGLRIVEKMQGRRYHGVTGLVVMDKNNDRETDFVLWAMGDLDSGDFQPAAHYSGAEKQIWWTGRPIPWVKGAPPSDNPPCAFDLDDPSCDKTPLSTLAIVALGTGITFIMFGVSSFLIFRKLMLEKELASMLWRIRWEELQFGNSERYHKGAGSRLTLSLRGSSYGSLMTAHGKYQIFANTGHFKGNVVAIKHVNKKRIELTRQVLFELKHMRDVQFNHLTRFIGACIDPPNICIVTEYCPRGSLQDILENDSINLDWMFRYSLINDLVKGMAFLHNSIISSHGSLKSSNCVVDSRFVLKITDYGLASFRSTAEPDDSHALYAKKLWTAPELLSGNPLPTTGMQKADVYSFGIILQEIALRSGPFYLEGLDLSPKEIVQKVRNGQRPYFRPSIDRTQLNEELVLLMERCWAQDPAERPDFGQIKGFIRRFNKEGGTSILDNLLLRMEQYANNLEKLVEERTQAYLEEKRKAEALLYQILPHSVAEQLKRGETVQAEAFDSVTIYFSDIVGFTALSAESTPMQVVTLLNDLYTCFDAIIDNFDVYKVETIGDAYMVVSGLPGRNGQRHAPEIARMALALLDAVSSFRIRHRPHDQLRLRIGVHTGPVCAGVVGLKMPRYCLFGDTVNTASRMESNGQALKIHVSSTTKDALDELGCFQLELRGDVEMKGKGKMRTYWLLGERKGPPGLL

T3: rat GC-A (Rattus norvegicus, UniProt P18910)
T3 construct: expressed in transfected cells; host or cells: HEK293, transient, CMV-driven pBK plasmid (gift of Dr. A. De Léan)
T3 sequence (P18910 29-1057): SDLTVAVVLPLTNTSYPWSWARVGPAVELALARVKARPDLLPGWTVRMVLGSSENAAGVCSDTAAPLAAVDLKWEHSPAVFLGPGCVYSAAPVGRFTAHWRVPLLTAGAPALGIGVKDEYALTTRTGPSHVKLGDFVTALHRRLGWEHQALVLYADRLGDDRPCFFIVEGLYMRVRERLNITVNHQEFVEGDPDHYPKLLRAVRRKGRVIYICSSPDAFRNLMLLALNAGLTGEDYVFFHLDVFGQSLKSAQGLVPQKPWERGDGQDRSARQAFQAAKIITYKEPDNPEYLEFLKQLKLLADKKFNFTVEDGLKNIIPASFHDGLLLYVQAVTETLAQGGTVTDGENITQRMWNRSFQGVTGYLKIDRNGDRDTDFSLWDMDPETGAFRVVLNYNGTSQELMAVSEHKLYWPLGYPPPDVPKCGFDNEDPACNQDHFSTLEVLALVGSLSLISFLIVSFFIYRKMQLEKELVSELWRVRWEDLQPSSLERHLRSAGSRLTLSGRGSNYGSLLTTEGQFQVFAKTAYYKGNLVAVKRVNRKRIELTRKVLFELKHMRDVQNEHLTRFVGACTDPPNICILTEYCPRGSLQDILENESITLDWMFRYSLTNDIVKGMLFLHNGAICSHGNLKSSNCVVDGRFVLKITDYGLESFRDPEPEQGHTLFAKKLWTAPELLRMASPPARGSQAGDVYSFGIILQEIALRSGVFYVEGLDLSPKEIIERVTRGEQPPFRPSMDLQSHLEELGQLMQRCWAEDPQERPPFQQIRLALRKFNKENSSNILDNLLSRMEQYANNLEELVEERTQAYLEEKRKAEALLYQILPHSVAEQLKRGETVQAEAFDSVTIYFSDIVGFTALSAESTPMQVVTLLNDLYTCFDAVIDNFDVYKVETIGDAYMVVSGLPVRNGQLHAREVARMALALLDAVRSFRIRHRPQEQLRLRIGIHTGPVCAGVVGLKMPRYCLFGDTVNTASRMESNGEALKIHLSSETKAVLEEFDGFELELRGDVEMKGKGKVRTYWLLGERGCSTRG

B1: PLAP-mOstn: fusion protein: N-terminal secreted placental alkaline phosphatase moiety linked to mature mouse Ostn residues 29-130 (SEQ ID NO: 70) (protein)
chain: DAAQPARRARRTYEAYVRSSGIIPVEEENPDFWNREAAEALGAAKKLQPAQTAAKNLIIFLGDGMGVSTVTAARILKGQKKDKLGPEIPLAMDRFPYVALSKTYNVDKHVPDSGATATAYLCGVKGNFQTIGLSAAARFNQCNTTRGNEVISVMNRAKKAGKSVGVVTTTRVQHASPAGTYAHTVNRNWYSDADVPASARQEGCQDIATQLISNMDIDVILGGGRKYMFPMGTPDPEYPDDYSQGGTRLDGKNLVQEWLAKRQGARYVWNRTELMQASLDPSVTHLMGLFEPGDMKYEIHRDSTLDPSLMEMTEAALRLLSRNPRGFFLFVEGGRIDHGHHESRAYRALTETIMFDDAIERAGQLTSEEDTLSLVTADHSHVFSFGGYPLRGSSIFGLAPGKARDRKAYTVLLYGNGPGYVLKDGARPDVTESESGSPEYRQQSAVPLDEETHAGEDVAVFARGPQAHLVHGVQEQTFIAHVMAFAACLEPYTACDLAPPAGTTDAAHPGYLDLASQEFGTASLQSPPTAREEKSATELSAKLLRLDDLVSLENDVFETKKKRSFSGFGSPLDRLSAGSVEHRGKQRKAVDHSKKRFGIPMDRIGRNRLSSSRG

What was measured:
[1] = target: T1, NPR-C; assay: Competition of PLAP-Ostn binding on NPR-C over-expressing cells; conditions: ~30 nM PLAP-Ostn, NPR-C transfected cells; read-out: concentration competing off 50% of the binding of PLAP-mOstn
Description: (§1) The expression plasmid for rat GC-A containing the entire coding sequence cloned between the NheI-KpnI sites of CMV-driven pBK plasmid (Stratagene, La Jolla, Calif.) was kindly provided by Dr. A. De Léan (Département de Pharmacologie, Université de Montréal). The human NPR-C and GC-B coding sequences were amplified by RT-PCR from human embryonic kidney polyA RNA (Clontech, Palo Alto, Calif.) with the following primer pairs: NPR-C-5′-[…]-3′(forward) (SEQ ID NO: 74) and 5′-[…]-3′ (SEQ ID NO: 75) (reverse); GC-B-5′-[…]-3′ (SEQ ID NO: 76) (forward) and 5′-[…]-3′ (SEQ ID NO: 77) (reverse). The resulting PCR products were then cloned downstream of the CMV-promoter into the pCDNA1.1 plasmid (Invitrogen, Burlington, ON, Canada). All constructs were validated by DNA sequencing.

[2] = target: T2, human GC-B; assay: PLAP-Ostn binding to GC-B transfected HEK293 cells; conditions: cells overexpressing GC-B
Description: as §1
(§2) To analyze the potential binding of Ostn to natriuretic receptors, a fusion protein (PLAP-Ostn) (FIG. 6) was generated as described above. This fusion protein comprised an N-terminal secreted placental alkaline phosphatase (PLAP) moiety linked to mature mouse Ostn (residues 29-130) (SEQ ID NO: 62). Conditioned media containing PLAP-mOstn was used to assess Ostn binding on transiently transfected cells.
(§3) Expression vectors for the coding sequence of GC-A, GC-B and NPR-C were constructed, transfected into human embryonic kidney (HEK) 293 cells and the cells incubated with either 37 nM PLAP or the PLAP-Ostn fusion. […]

[3] = target: T3, rat GC-A; assay: PLAP-Ostn binding to GC-A transfected HEK293 cells; conditions: cells overexpressing GC-A (not shown)
Description: as §1, §2, §3

| Molecule | IC50 [1] [nM] | specific binding [2] | specific binding [3] |
| --- | --- | --- | --- |
| YDHSKKRFGIPMDRIGRNRLSNSR-NH2 [Ostn[107-129]] | 1 to 10 | – | – |
| B1 | – | No specific binding | No specific binding |
